Format in all cases: binding
Experiment [1] can be described thus: Probe fluorescence ratio response to arachidonate:BSA complex, relative to ADIFAB2 (ΔR/ΔRAD2). The conditions noted are these: for ΔR/ΔRAD2 AA: fluorescence response (R-Ro) relative to ADIFAB2, arachidonate; for DR/DR AA: arachidonate (AA), response relative to ADIFAB2. The protocol:
(§1) The intensity ratio (“R” value) for a given probe is determined. The ratio is calculated using the following formula: R=Fλ1/Fλ2 wherein, Fλ1, is the measured fluorescence intensities (intensity of sample with probe present minus intensity of sample without probe present) at wavelength 1 and Fλ2 is the measured fluorescence intensities (intensity of sample with probe present minus intensity of sample without probe present) at wavelength 2. Then, for a given probe, ΔR, the difference in R value between the measurement in the presence of the analyte and in the absence of the analyte, is calculated as follows: ΔR=R+analyte−R0 The ΔR value for a given probe is then compared to a reference probe, for example, ADIFAB or ADIFAB2, by ΔR/ΔRreference. This value is an indication of how dissimilar the new probe (derived by mutation of the template) is to the reference. By this method, probes with new and useful characteristics may be identified. Measurements of fluorescence intensities are obtained using standard techniques.
(§2) Mutant probes were screened in 96-well plates by fluorescence response to five fatty acids: arachidonate, linolenate, linoleate, oleate, and palmitate. Each fatty acid was prepared as a complex with BSA by slow addition of 50 mM stocks of fatty acid sodium salts at pH 11 to 600 μM BSA in HEPES buffer. During the formation of complexes, 15 μL aliquots were periodically measured with the reference probe, ADIFAB2, to determine the ΔR value upon excitation at 375 nm and fluorescence emission at 550 and 457 nm using a Fluorolog-3 spectrofluorometer (Jobin Yvon) (Richieri et al, Molecular and Cellular Biochemistry (1999), 192:87-94 & Richieri et al, J. Biol. Chem. (1996), 271:31068-31074). Complexes were prepared such that the final ΔR was approximately 0.4 which correspond to [FFAu] ranging from 100 to 1000 nM depending on FFA type. These complexes buffer or clamp the FFAu levels at fixed values and therefore ensure the accurate comparison of different probes with the same FFAu concentrations. In contrast, addition of FFAu alone (i.e. uncomplexed FFA) introduces considerable uncertainty in comparing different probes because the FFAu level will be affected by binding to the dispensing device, the walls of the multi-well plates and to the probe itself. Thus, the terms “buffer” and “clamp” as used in this particular context herein are taken to mean the ability of a carrier macromolecule to complex with an unbound metabolite so that the unbound metabolite is presented accurately for measurement purposes and is prevented from non-specific binding such as binding to laboratory apparatus.
(§3) Plates were prepared and read in two stages. First, complexes and fatty acid free BSA were diluted to 6 μM BSA in HEPES and added to the 96-well plate at 300 μL per well. A MultiProbe II HT (Perkin Elmer) (an automated liquid handling system) was used to facilitate plate preparation for high throughput screening, but any automated or manual pipetting system will suffice. The background fluorescence was then measured at the same wavelengths as used for ADIFAB2 using a Fluorolog-3 spectrofluorometer with an external Micromax 384 fluorescence plate reader (Jobin Yvon). In the second stage, 30 μL aliquots of the mutant probes were added to multiple wells of the plate, one for each fatty acid and one with fatty acid free BSA only, and the fluorescence intensity at each wavelength was again measured on the plate reader. After subtraction of the background fluorescence, the fluorescence ratio of each well was calculated.
(§4) The fluorescence response was quantitatively compared to ADIFAB2 to search for changes in magnitude and fatty acid profile; for example the response to one fatty acid relative to another. For each probe the ratio differences (AR) between wells with each fatty acid compared to a corresponding well with fatty acid free BSA were recorded. […]

Experiment [2] can be described thus: Probe fluorescence ratio response to palmitate:BSA complex, relative to ADIFAB2 (ΔR/ΔRAD2). The conditions noted are these: for ΔR/ΔRAD2 PA: fluorescence response (R-Ro) relative to ADIFAB2, palmitate; for DR/DR PA: palmitate (PA), response relative to ADIFAB2. How it is done:
as §1, §2, §3, §4

Experiment [3] can be described thus: Probe fluorescence ratio response to linolenate:BSA complex, relative to ADIFAB2 (ΔR/ΔRAD2). The conditions noted are these: for ΔR/ΔRAD2 LNA: fluorescence response (R-Ro) relative to ADIFAB2, linolenate; for DR/DR LNA: linolenate (LNA), response relative to ADIFAB2. The protocol: as §1, §2, §3, §4
A short description of experiment [4]: Probe fluorescence ratio response to linoleate:BSA complex, relative to ADIFAB2 (ΔR/ΔRAD2). The conditions noted are these: for ΔR/ΔRAD2 LA: fluorescence response (R-Ro) relative to ADIFAB2, linoleate; for DR/DR LA: linoleate (LA), response relative to ADIFAB2. How it is done: as §1, §2, §3, §4
Experiment [5] can be described thus: Probe fluorescence ratio response to oleate:BSA complex, relative to ADIFAB2 (ΔR/ΔRAD2). The conditions noted are these: for ΔR/ΔRAD2 OA: fluorescence response (R-Ro) relative to ADIFAB2, oleate; for DR/DR OA: oleate (OA), response relative to ADIFAB2. The protocol:
as §1, §2, §3, §4

B1: L72A: acrylodan-labeled rI-FABP clone with L72A (the template mutein) (protein, listed as Rattus norvegicus)
chain: AFDGTWKVDRNENYEKFMEKMGINVVKRKLGAHDNLKLTITQEGNKFTVKESSNFRNIDVVFELGVDFAYSAADGTELTGTWTMEGNKLVGKFKRVDNGKELIAVREISGNELIQTYTYEGVEAKRIFKKDRGHHHHHH
modifications: acrylodan label; MUTAGEN (72)...(72) rat intestinal fatty acid binding protein with alanine substitution for leucine at position 72
Regarding B1, the “ΔR/ΔRAD2 AA” value in experiment [1] was determined as 1.12. Further, the “ΔR/ΔRAD2 PA” value in experiment [2] turned out to be 1.02. Further, in experiment [3], the “ΔR/ΔRAD2 LNA” value came out at 1.16. Moreover, in experiment [4], the “ΔR/ΔRAD2 LA” value is given as 1.14. The “ΔR/ΔRAD2 OA” value in experiment [5] is reported as 1.15.

B2: 47S1, L72A (protein, UniProt P02693 2-132, looked up, variant F47S L72A)
Fatty acid-binding protein, …: AFDGTWKVDRNENYEKFMEKMGINVVKRKLGAHDNLKLTITQEGNKSTVKESSNFRNIDVVFELGVDFAYSAADGTELTGTWTMEGNKLVGKFKRVDNGKELIAVREISGNELIQTYTYEGVEAKRIFKKE
modifications: acrylodan label
Take B2: in experiment [1], the “DR/DR AA” value is reported as 0.61. Moreover, in experiment [2], the “DR/DR PA” value is 0.34. Moreover, the “DR/DR LNA” value in experiment [3] is listed as 0.69. Moreover, in experiment [4], the “DR/DR LA” value amounted to 0.66. The “DR/DR OA” value in experiment [5] is given as 0.64.

B3: Y117S, L72A: acrylodan-labeled rI-FABP mutein Y117S, L72A (protein)
chain: AFDGTWKVDRNENYEKFMEKMGINVVKRKLGAHDNLKLTITQEGNKFTVKESSNFRNIDVVFELGVDFAYSAADGTELTGTWTMEGNKLVGKFKRVDNGKELIAVREISGNELIQTSTYEGVEAKRIFKKE
As to B3, the “ΔR/ΔRAD2 AA” value in experiment [1] worked out at 1.35. In experiment [2], the “ΔR/ΔRAD2 PA” value came to 0.55. In addition, in experiment [3], the “ΔR/ΔRAD2 LNA” value amounted to 1.07. For the same molecule, the “ΔR/ΔRAD2 LA” value in experiment [4] is given as 1.42. Further, in experiment [5], the “ΔR/ΔRAD2 OA” value amounted to 1.19.

B4: Y117A, L72A: acrylodan-labeled rI-FABP mutein Y117A, L72A (protein)
chain: AFDGTWKVDRNENYEKFMEKMGINVVKRKLGAHDNLKLTITQEGNKFTVKESSNFRNIDVVFELGVDFAYSAADGTELTGTWTMEGNKLVGKFKRVDNGKELIAVREISGNELIQTATYEGVEAKRIFKKE
With B4, in experiment [1], the “ΔR/ΔRAD2 AA” value amounted to 1.27. Moreover, the “ΔR/ΔRAD2 PA” value in experiment [2] was 0.32. For the same molecule, the “ΔR/ΔRAD2 LNA” value in experiment [3] is 0.62. The “ΔR/ΔRAD2 LA” value in experiment [4] amounted to 1.01. Moreover, the “ΔR/ΔRAD2 OA” value in experiment [5] was found to be 0.93.

B5: D74F, L72A: acrylodan-labeled rI-FABP mutein D74F, L72A (protein)
chain: AFDGTWKVDRNENYEKFMEKMGINVVKRKLGAHDNLKLTITQEGNKFTVKESSNFRNIDVVFELGVDFAYSAAFGTELTGTWTMEGNKLVGKFKRVDNGKELIAVREISGNELIQTYTYEGVEAKRIFKKE
For B5, in experiment [1], the “ΔR/ΔRAD2 AA” value is on record as 0.44. Also, the “ΔR/ΔRAD2 PA” value in experiment [2] is 0.93. For the same molecule, in experiment [3], the “ΔR/ΔRAD2 LNA” value is recorded as 1.04. Moreover, in experiment [4], the “ΔR/ΔRAD2 LA” value is listed as 0.67. Moreover, in experiment [5], the “ΔR/ΔRAD2 OA” value stood at 0.51.

B6: L78F, L72A: acrylodan-labeled rI-FABP mutein L78F, L72A (protein)
chain: AFDGTWKVDRNENYEKFMEKMGINVVKRKLGAHDNLKLTITQEGNKFTVKESSNFRNIDVVFELGVDFAYSAADGTEFTGTWTMEGNKLVGKFKRVDNGKELIAVREISGNELIQTYTYEGVEAKRIFKKE
Consider B6, for which, in experiment [1], the “ΔR/ΔRAD2 AA” value was 2.04. Also, the “ΔR/ΔRAD2 PA” value in experiment [2] amounted to 0.91. Also, in experiment [3], the “ΔR/ΔRAD2 LNA” value was found to be 2.05. Further, the “ΔR/ΔRAD2 LA” value in experiment [4] turned out to be 2. In addition, in experiment [5], the “ΔR/ΔRAD2 OA” value is 1.83.

B7: W82F, L72A: acrylodan-labeled rI-FABP mutein W82F, L72A (protein)
chain: AFDGTWKVDRNENYEKFMEKMGINVVKRKLGAHDNLKLTITQEGNKFTVKESSNFRNIDVVFELGVDFAYSAADGTELTGTFTMEGNKLVGKFKRVDNGKELIAVREISGNELIQTYTYEGVEAKRIFKKE
B7: in experiment [1], the “ΔR/ΔRAD2 AA” value is on record as 0.68. In experiment [2], the “ΔR/ΔRAD2 PA” value was 0.41. Besides, in experiment [3], the “ΔR/ΔRAD2 LNA” value is on record as 0.76. Besides, the “ΔR/ΔRAD2 LA” value in experiment [4] is listed as 1.08. In addition, the “ΔR/ΔRAD2 OA” value in experiment [5] came to 0.78.

B8: R106W, L72A: acrylodan-labeled rI-FABP mutein R106W, L72A (protein)
chain: AFDGTWKVDRNENYEKFMEKMGINVVKRKLGAHDNLKLTITQEGNKFTVKESSNFRNIDVVFELGVDFAYSAADGTELTGTWTMEGNKLVGKFKRVDNGKELIAVWEISGNELIQTYTYEGVEAKRIFKKE
With B8, in experiment [1], the “ΔR/ΔRAD2 AA” value is given as 1.11. Moreover, in experiment [2], the “ΔR/ΔRAD2 PA” value is given as 0.41. Further, the “ΔR/ΔRAD2 LNA” value in experiment [3] is 1.03. For the same molecule, the “ΔR/ΔRAD2 LA” value in experiment [4] is reported as 1.04. For the same molecule, the “ΔR/ΔRAD2 OA” value in experiment [5] is recorded as 0.99.

B9: L72M: acrylodan-labeled rI-FABP mutein L72M (protein)
chain: AFDGTWKVDRNENYEKFMEKMGINVVKRKLGAHDNLKLTITQEGNKFTVKESSNFRNIDVVFELGVDFAYSMADGTELTGTWTMEGNKLVGKFKRVDNGKELIAVREISGNELIQTYTYEGVEAKRIFKKE
For B9, the “ΔR/ΔRAD2 AA” value in experiment [1] came to 1.31. Besides, in experiment [2], the “ΔR/ΔRAD2 PA” value is given as 1.32. The “ΔR/ΔRAD2 LNA” value in experiment [3] is reported as 1.35. Further, the “ΔR/ΔRAD2 LA” value in experiment [4] is 1.46. In addition, the “ΔR/ΔRAD2 OA” value in experiment [5] came to 1.49.

B10: 47T1, L72A (protein, UniProt P02693 2-132, looked up, variant F47T L72A)
Fatty acid-binding protein, …: AFDGTWKVDRNENYEKFMEKMGINVVKRKLGAHDNLKLTITQEGNKTTVKESSNFRNIDVVFELGVDFAYSAADGTELTGTWTMEGNKLVGKFKRVDNGKELIAVREISGNELIQTYTYEGVEAKRIFKKE
modifications: acrylodan label
Consider B10, for which the “DR/DR AA” value in experiment [1] turned out to be 0.68. In addition, the “DR/DR PA” value in experiment [2] stood at 0.46. Besides, in experiment [3], the “DR/DR LNA” value is 0.74. The “DR/DR LA” value in experiment [4] is recorded as 0.77. For the same molecule, the “DR/DR OA” value in experiment [5] turned out to be 0.74.

B11: A73F, L72A: acrylodan-labeled rI-FABP mutein A73F, L72A (protein)
chain: AFDGTWKVDRNENYEKFMEKMGINVVKRKLGAHDNLKLTITQEGNKFTVKESSNFRNIDVVFELGVDFAYSAFDGTELTGTWTMEGNKLVGKFKRVDNGKELIAVREISGNELIQTYTYEGVEAKRIFKKE
B11: in experiment [1], the “ΔR/ΔRAD2 AA” value is recorded as 1.21. For the same molecule, the “ΔR/ΔRAD2 PA” value in experiment [2] came to 1.13. The “ΔR/ΔRAD2 LNA” value in experiment [3] came out at 1.86. Also, in experiment [4], the “ΔR/ΔRAD2 LA” value is 1.23. Also, the “ΔR/ΔRAD2 OA” value in experiment [5] is 0.73.

B12: L72G: acrylodan-labeled rI-FABP mutein L72G (protein)
chain: AFDGTWKVDRNENYEKFMEKMGINVVKRKLGAHDNLKLTITQEGNKFTVKESSNFRNIDVVFELGVDFAYSGADGTELTGTWTMEGNKLVGKFKRVDNGKELIAVREISGNELIQTYTYEGVEAKRIFKKE
As to B12, in experiment [1], the “ΔR/ΔRAD2 AA” value was 0.62. In addition, in experiment [2], the “ΔR/ΔRAD2 PA” value stood at 0.26. Further, the “ΔR/ΔRAD2 LNA” value in experiment [3] is recorded as 0.48. The “ΔR/ΔRAD2 LA” value in experiment [4] is listed as 0.48. Besides, the “ΔR/ΔRAD2 OA” value in experiment [5] is recorded as 0.52.

(Values after US20050244864A1, “Development and use of fluorescent probes of unbound analytes” (priority 2004, published 2005).)
